In patent US20180291096A1 (Janssen / Centocor, published 2018):
Where a chain is given by its changes, count along the chain named.

T1: recombinant human IL-23 (hrIL-23), produced at Centocor (human, UniProt P29460 23-328)
T1 construct: p19-p40 heterodimer; also called rhIL-23; huIL-23
T1 sequence 1: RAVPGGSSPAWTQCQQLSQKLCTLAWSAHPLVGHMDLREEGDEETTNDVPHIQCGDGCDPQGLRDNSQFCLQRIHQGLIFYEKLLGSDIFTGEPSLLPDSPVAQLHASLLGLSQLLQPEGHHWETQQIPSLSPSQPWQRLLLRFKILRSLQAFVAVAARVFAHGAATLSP
T1 sequence 2: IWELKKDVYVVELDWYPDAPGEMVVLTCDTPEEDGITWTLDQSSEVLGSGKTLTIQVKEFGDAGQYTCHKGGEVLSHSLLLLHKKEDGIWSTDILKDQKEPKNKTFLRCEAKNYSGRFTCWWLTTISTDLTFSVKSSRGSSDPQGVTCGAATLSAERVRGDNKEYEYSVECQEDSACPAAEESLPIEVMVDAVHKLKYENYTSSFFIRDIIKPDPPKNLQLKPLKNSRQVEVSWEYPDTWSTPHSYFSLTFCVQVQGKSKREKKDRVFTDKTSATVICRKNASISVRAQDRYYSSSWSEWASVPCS

T2: recombinant human IL-12 (hrIL-12), produced at Centocor (human, UniProt P29459 23-219; P29460 23-328)
T2 construct: also called IL-12 CNTO
T2 sequence (looked up) 1: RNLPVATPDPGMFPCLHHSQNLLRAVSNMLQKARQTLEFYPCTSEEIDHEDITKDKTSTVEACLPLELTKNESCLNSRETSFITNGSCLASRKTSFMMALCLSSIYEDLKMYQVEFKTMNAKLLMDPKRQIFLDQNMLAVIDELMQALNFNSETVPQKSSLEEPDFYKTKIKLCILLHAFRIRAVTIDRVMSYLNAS
T2 sequence (looked up) 2: T1 sequence 2

B1: MOR05049 Fab (Fab, V domains shown)
VH: QVQLVESGGGLVQPGGSLRLSCAASGFTFSSFGMSWVRQAPGKGLEWVSGIEHKYLSYTTHYAASVKGRFTISRDNSKNTLYLQMNSLRAEDTAVYYCARYWGTPYLMQFDNWGQGTLVTVSS
VL: DIALTQPASVSGSPGQSITISCTGTSSDVGGYNSVSWYQQHPGKAPKLMIYSVSSRPSGVSNRFSGSKSGNTASLTISGLQAEDEADYYCSSYDTNKPLVVFGGGTKLTVL
notes: Fab
B2: MOR04658 Fab (Fab, V domains shown)
VH: QVQLVESGGGLVQPGGSLRLSCAASGFTFSSFGMSWVRQAPGKGLEWVSNISSSGSSTYYADSVKGRFTISRDNSKNTLYLQMNSLRAEDTAVYYCARYWGTPYLMQFDNWGQGTLVTVSS
VL: B1 VL
notes: Fab
B3: MOR05055 Fab (Fab, V domains shown)
VH: B1 VH with G50N, S57G, T59A, H61V
VL: B1 VL
notes: Fab
B4: MOR05062 Fab (Fab, V domains shown)
VH: B2 VH
VL: B1 VL with S91Q, S92T, D94Y, T95F, N96S, K97Y, P98S, L99G, V100P
notes: Fab
B5: MOR05056 Fab (Fab, V domains shown)
VH: B1 VH with G50S, T59A, H61Y, S65G
VL: B1 VL
notes: Fab
B6: MOR05060 Fab (Fab, V domains shown)
VH: B2 VH
VL: B1 VL with S91G, T95V, N96Y, K97G, P98R, L99F, V100Y
notes: Fab
B7: MOR05063 Fab (Fab, V domains shown)
VH: B2 VH
VL: B1 VL with S91G, Y93W, T95P, N96I, K97F, P98S, L99Y, V100E
notes: Fab
B8: MOR05061 Fab (Fab, V domains shown)
VH: B2 VH
VL: B1 VL with D94Y, T95F, N96Y, K97L, P98Q, L99R, V100I
notes: Fab
B9: MOR05042 Fab (Fab, V domains shown)
VH: QVQLVQSGAEVKKPGESLKISCKGSGYSFSNYWIGWVRQMPGKGLEWMGIISPTGSSTWYSPSFQGQVTISADKSISTAYLQWSSLKASDTAMYYCARWYYKPFDVWGQGTLVTVSS
VL: DIVLTQPPSVSGAPGQRVTISCTGSSSNIGSGYDVHWYQQLPGTAPKLLIYGNSKRPSGVPDRFSGSKSGTSASLAITGLQSEDEADYYCSSWTPSSVVFGGGTKLTVL
notes: Fab
B10: MOR05045 Fab (Fab, V domains shown)
VH: B9 VH with S57A
VL: B9 VL
notes: Fab
B11: MOR04649 Fab (Fab, V domains shown)
VH: B9 VH with S52D, T54S, G55N, S57Y, W59N
VL: B9 VL
notes: Fab
B12: MOR04083 Fab (Fab, V domains shown)
VH: QVQLVQSGAEVKKPGSSVKVSCKASGGTFSNYAISWVRQAPGQGLEWMGGIIPMFGYANYAQKFQGRVTITADESTSTAYMELSSLRSEDTAVYYCARDIYAGMDVWGQGTLVTVSS
VL: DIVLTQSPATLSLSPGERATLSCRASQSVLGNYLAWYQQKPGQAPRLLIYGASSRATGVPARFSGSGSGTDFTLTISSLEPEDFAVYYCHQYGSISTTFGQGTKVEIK
notes: Fab
B13: MOR05028 Fab (Fab, V domains shown)
VH: B12 VH with M54V, Y57F, A58T, N59H
VL: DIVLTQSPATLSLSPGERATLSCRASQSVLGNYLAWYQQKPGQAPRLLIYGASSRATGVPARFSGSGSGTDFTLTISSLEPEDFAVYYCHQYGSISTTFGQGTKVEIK
notes: Fab
B14: MOR05038 Fab (Fab, V domains shown)
VH: QVQLVQSGAEVKKPGSSVKVSCKASGGTFSSNYISWVRQAPGQGLEWMGINAHLGGTWYAQKFQGRVTITADESTSTAYMELSSLRSEDTAVYYCARSKKGMYGGWTYPLMMFDLWGQGTLVTVSS
VL: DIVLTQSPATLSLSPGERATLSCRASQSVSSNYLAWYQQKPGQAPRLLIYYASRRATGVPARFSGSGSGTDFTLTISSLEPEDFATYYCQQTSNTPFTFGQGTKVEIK
notes: Fab
B15: MOR04190 Fab (Fab, V domains shown)
VH: QVQLVQSGAEVKKPGSSVKVSCKASGGTFSSNYISWVRQAPGQGLEWMGGIIPIFGHANYAQKFQGRVTITADESTSTAYMELSSLRSEDTAVYYCARSKKGMYGGWTYPLMMFDLWGQGTLVTVSS
VL: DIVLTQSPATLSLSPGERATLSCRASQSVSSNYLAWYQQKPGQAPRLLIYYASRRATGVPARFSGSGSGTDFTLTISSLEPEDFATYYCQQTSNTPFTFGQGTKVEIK
notes: Fab
B16: MOR04205 Fab (Fab, V domains shown)
VH: QVQLVQSGAEVKKPGESLKISCKGSGYSFTNYWISWVRQAPGKGLEWMGWIRPGDSDTRYSPSFEGQVTISADKSISTAYLQWSSLKASDTAMYYCARHYYGMDYWGQGTLVTVSS
VL: DIVLTQPPSVSGAPGQRVTISCSGSSSNIGSYYVNWYQQLPGTAPKLLIYGNTHRPSGVPDRFSGSKSGTSASLAITGLQSEDEADYYCQTYASLGPGEVFGGGTKLTVL
notes: Fab
B17: MOR04217 Fab (Fab, V domains shown)
VH: QVQLVESGGGLVQPGGSLRLSCAASGFTFSSYWITWVRQAPGKGLEWVSYISSSGSSTYYADSVKGRFTISRDNSKNTLYLQMNSLRAEDTAVYYCARGTFWSFGNYFANWGQGTLVTVSS
VL: DIVLTQSPATLSLSPGERATLSCRASQSIFYNLAWYQQKPGQAPRLLIYGASNRATGVPARFSGSGSGTDFTLTISSLEPEDFATYYCQQYSSEPVTFGQGTKVEIK
notes: Fab

Target: T1, recombinant human IL-23 (hrIL-23), …
Experiment: SET

| Binder | Kd |
| --- | --- |
| B1 | 0.007 nM |
| B2 | 4.3 nM |
| B3 | 0.029 nM |
| B4 | 0.098 nM |
| B5 | 0.065 nM |
| B6 | 0.142 nM |
| B7 | 0.069 nM |
| B8 | 0.058 nM |

Target: T1, recombinant human IL-23 (hrIL-23), …
Experiment: IL-23/IL-23R competition assay

| Binder | IC50 |
| --- | --- |
| B9 | 0.06 nM |
| B10 | 0.05 nM |
| B11 | 1.2 nM |
| B12 | 7.1 nM |
| B13 | 0.43 nM |
| B14 | 0.17 nM |
| B15 | 1.3 nM |

Target: T1, recombinant human IL-23 (hrIL-23), …
Experiment: SET
Remark: another data set of the same source

| Binder | Kd |
| --- | --- |
| B9 | 0.004 nM |
| B10 | 0.009 nM |
| B11 | 1.1 nM |
| B12 | 1.6 nM |
| B13 | 0.133 nM |
| B14 | 0.038 nM |
| B15 | 4.4 nM |

Target: T1, recombinant human IL-23 (hrIL-23), …
Experiment: Biacore, Fab capture

| Binder | Kd |
| --- | --- |
| B11 | 7 nM |
| B12 | 16 nM |
| B15 | 11 nM |
| B16 | 140 nM |
| B17 | 41 nM |
| B2 | 11 nM |

Target: T1, recombinant human IL-23 (hrIL-23), …
Experiment: IL-23/IL-23R competition assay
Remark: another data set of the same source

| Binder | IC50 |
| --- | --- |
| B1 | 0.39 nM |
| B2 | 14 nM |
| B3 | 0.79 nM |
| B4 | 1.34 nM |
| B5 | 0.52 nM |
| B6 | 1 nM |
| B7 | 0.32 nM |
| B8 | 1.25 nM |

Target: T2, recombinant human IL-12 (hrIL-12), …
Experiment: not told

| Binder | binding result |
| --- | --- |
| B9 | no binding |
| B10 | no binding |
| B13 | no binding |
| B14 | no binding |
| B1 | no binding |

Target: T1, recombinant human IL-23 (hrIL-23), …
Experiment: hrIL-23/hIL-23R competition assay

| Binder | IC50 |
| --- | --- |
| B11 | 0.2 nM |
| B12 | 4.6 nM |
| B15 | 4.8 nM |
| B16 | 38 nM |
| B17 | 16 nM |
| B2 | 0.7 nM |
